# Source: patent publication US20230296611A1 (INNATE PHARMA, published 2023)
# Numbering of substitutions follows the chain as printed.
# T1: human MICA*008 (human, UniProt Q29983 24-297)
# T1 construct: C1R-neo cells transfected with human MICA*008, formalin fixed and paraffin embedded (or live cells for flow cytometry); transmembrane and cytoplasmic parts are not in the entry; also called C1R MICA*008 cells
# T1 chain: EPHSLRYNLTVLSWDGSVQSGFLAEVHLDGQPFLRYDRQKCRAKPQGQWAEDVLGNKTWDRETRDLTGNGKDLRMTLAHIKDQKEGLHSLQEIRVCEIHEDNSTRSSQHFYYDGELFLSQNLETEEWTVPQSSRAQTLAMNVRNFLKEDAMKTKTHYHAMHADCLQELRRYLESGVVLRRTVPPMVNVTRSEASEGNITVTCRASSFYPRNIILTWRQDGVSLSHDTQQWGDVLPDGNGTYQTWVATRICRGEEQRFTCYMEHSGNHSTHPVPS
# T2: human MICA*001 (human, UniProt Q29983 24-297)
# T2 construct: C1R-neo cells transfected with human MICA*001, formalin fixed and paraffin embedded (or live cells for flow cytometry); also called C1R MICA*001 cells
# T2 sequence: T1 chain with A24T, Y36C, E125K, V129M, E173K, S206G, R210W, I213T, T215S, R251Q
# B1: antibody 12C9 (antibody, V domains shown)
# VH: EIQLQQSGPELEKPGASVKISCKASGYAFTGYYMNWMKQRNGKSLDWIGTINPYYGSSTYNQKFKGKATLTVDESSSTAYMQLTSLTSEDSAVYYCARVDGDHGYFDYWGRGTTLTVSS
# VL: DVVMTQTPLSLPVSLGDQASISCRSSQSLVHSNGNTYLHWYLQKPGQSPKLLIYKVSTRFSGVPDRFSGSGSGTDFTLKISRVEAEDLGVYFCSQSTHVPFTFGSGTKLEIK
# notes: Produced as a mouse antibody with mouse gamma1 chain (mIgG1 isotype)
# Assays:
# human MICA*008 = target: T1, human MICA*008; assay: IHC with hybridoma supernatant on FFPE C1R MICA*008 cell pellet, Ventana, CC1 or CC2
# Description: (§1) In parallel to the phenotyping by flow cytometry, the cell lines were fixed in formalin and embedded in paraffin. Briefly, 20×10⁶ to 40×10⁶ cells were fixed for 1 hour with formalin 4%. The cells were washed twice in PBS, and there were resuspended in Histogel. The cell pellets were dehydrated and embedded in paraffin. For each cell line, several FFPE cell pellets were made A mix of cells (C1R MICA*008 (15.10⁶ cells) and C1R MICB (15.10⁶ cells)) was also were embedded in paraffin. Sectioning of FFPE cell pellets was performed and MICA/B staining done by IHC. Briefly, 5 μm-thick sections were incubated dewaxed, submitted to an antigen retrieval step and incubated with immune or non-immune sera, hybridoma supernatants, chain combinations Abs or purified and commercial Abs followed by a signal amplification step. Enzymatic revelation was finally performed using 3, 3′-diaminobenzidine (DAB). For the IHC stainings with the mouse sera, staining interpretation was done by attributing a percentage of stained cells in the pellet section as well as an intensity score using the following criterion: “−”: negative staining; “+”: weak positive staining; “++”: intermediate IHC signal in intensity and “+++”: strong positive staining. […]
# human MICA*001 = target: T2, human MICA*001; assay: IHC with hybridoma supernatant on FFPE C1R MICA*001 cell pellet, Ventana, CC1 or CC2
# Description: as §1
binder,measurement,setting,value
B1,binding result,human MICA*008,binds
same,binding result,human MICA*001,binds
